According to US20090221680, “Aptamers that bind thrombin with high affinity” (published 2009):

Assays:
[1] = target: T1, thrombin (endogenous, clotting assay in plasma or whole blood) (Homo sapiens, UniProt P00734;P00734 P00734:328-363,P00734:364-622); test: inhibition; PT at 10 uM
[2] = target: T1, thrombin (endogenous, clotting assay in …); test: inhibition; ACT at 10 uM aptamer
[3] = target: T1, thrombin (endogenous, clotting assay in …); test: inhibition; PT at 10 uM; remark: listed apart in the source
[4] = target: T2, thrombin (alpha-thrombin) (Homo sapiens, UniProt P00734;P00734 P00734:315-363,P00734:364-622); test: filter; 10 nM thrombin
[5] = target: T1, thrombin (endogenous, clotting assay in …); test: inhibition; ACT at 10 uM
[6] = target: prothrombin (Homo sapiens, UniProt P00734 P00734:44-622); test: filter; 50 nM prothrombin; conditions: tags: Athens Research
How it was run: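 Trace 5′-³²P-labeled RNA clones incubated ±50 nM prothrombin with 0.1 mg/ml BSA in 1×DPBS (with Ca²⁺/Mg²⁺), 30 min. Bound RNA captured on nitrocellulose, free RNA on nylon; filters quantified by phosphorimaging. Single-point screen.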

[7] = target: T1, thrombin (endogenous, clotting assay in …); test: inhibition; PT at 10 uM; remark: listed apart in the source
[8] = target: T2, thrombin (alpha-thrombin); test: filter; DPBS Ca2+ Mg2+, 0.1 mg/ml BSA
[9] = target: T1, thrombin (endogenous, clotting assay in …); test: inhibition; PT at 10 uM, parent 300 s
[10] = target: T1, thrombin (endogenous, clotting assay in …); test: inhibition; PT at 10 uM, instrument maximum
[11] = target: thrombin (endogenous, in vivo, ACT of whole blood) (Macaca fascicularis, UniProt A0A2K5UZ51;A0A2K5UZ51 A0A2K5UZ51:325-360,A0A2K5UZ51:361-619); test: inhibition; maximum ACT in monkey, IV bolus 0.46 umol/kg

B1: ARC2169.8 (ssDNA)
DNA: ACTGCATAGGTTGGGTAGGGTGGTGCAGT
- activity [1]: 28.7 s

B2: ARC2188 (ssDNA)
DNA: TTTTTTCCTCAGGGATGGTGTGGGTGGCTGAGG
- activity [2]: 426 s

B3: ARC2193 (ssDNA)
DNA: TTTCTGCCTAGGTTGGGTAGGGTGGTGGCAG
- activity [2]: 545 s

B4: ARC2169.1 (ssDNA)
DNA: ACTGCCTAGGATGGGTAGGGTGGTGGCAGT
- activity [1]: 300 s

B5: AMX(453)_C10 (ssDNA)
DNA: TCCTGATTGATCTGAGGGGTATTGTTGGCGTGGGTGGCTGAGGATCGATC
- activity [3]: 104 s

B6: AMX(395)_G11 (ssDNA)
DNA: TCCCAGAGCGGAAATCCTCAGGGGTGGGGTGGGTGGCTGAGGATCGATC
- binding signal [4]: 21.9 % bound

B7: AMX(453)_G5 (ssDNA)
DNA: TCCCATGATCGTTAGATTCAGGGATGGTGTGGGTGGCTGAGGATCGATC
- activity [3]: 29.3 s

B8: ARC2324 (ssDNA)
DNA: CGCCTAGGTTGGGTAGGGTGGTGGCG
modifications: 5'-hexylamine
- activity [5]: 424 s

B9: AMX(454)_F9 (ssDNA)
DNA: TCCCTGCATCGAGCCTCTATGGGATGGTTTGGGTGGCTGAGGATCGATC
- activity [3]: 25 s

B10: AMX(453)_A9 (ssDNA)
DNA: ATCCCAATGTTGAGACGAGTAGGTGTGGGTAGGGTGGCTGAGGATCGATC
- activity [3]: 29.3 s

B11: ARC2169.4 (ssDNA)
DNA: ACTGCCTAGGTTGGGTAGGATGGTGGCAGT
- activity [1]: 53.8 s

B12: AMX(454)_D11 (ssDNA)
DNA: TCCCTGCTTGTCGATATTTTAGGGTTGGTGTGGGTGGCTGAGGATCGATC
- activity [3]: 43.4 s

B13: AMX(398)_D9 (ssDNA)
DNA: TCCCATGAACTCAGGGTAATTTTTTGGTGTGGGTGGCTGAGGATCGATC
- binding signal [6]: 41.8 % bound
- activity [7]: 80.8 s
- Kd [8]: 5.64 nM

B14: ARC2323 (ssDNA)
DNA: ACTGCCTAGGTTGGGTAGGGTGGTGGCAGT
modifications: 5'-PEG 10 kDa via hexylamine
- activity [5]: 514 s

B15: ARC2194 (ssDNA)
DNA: TTTTTTCTGCCTAGGTTGGGTAGGGTGGTGGCAG
- activity [2]: 462 s

B16: Minimer 3 (ssDNA)
DNA: GGTTGGGTAGGGTGG
- activity [9]: 25.8 s

B17: ARC2189 (ssDNA)
DNA: TTTCCTCAGGGATGGTGTGGGTGGCTGAGGTTT
- activity [2]: 410 s

B18: AMX(398)_C10 (ssDNA)
DNA: TCCCGAGCGATACTGCCTAGGCTGGGTAGGGTGGTGGCTGAGGATCGATC
- binding signal [6]: 40.9 % bound
- activity [7]: 58.8 s
- Kd [8]: 3.27 nM

B19: AMX(399)_C11 (ssDNA)
DNA: TCCCGAGGGACGACGCCTAGGTTGGGTAGGGTGGTGGCTGAGGATCGATC
- binding signal [6]: 41.6 % bound
- activity [7]: 52.6 s
- Kd [8]: 1.74 nM

B20: AMX(453)_F7 (ssDNA)
DNA: TCCCGAGCGATACTGTCTAGGTTGGGTAGGGTGGTGGCTGAGGATCGATC
- activity [3]: 28.6 s

B21: AMX(454)_F2 (ssDNA)
DNA: TCCCGAGCGATATTGCCTAGGTTGGGTAGGGTGGTGGCTGAGGATCGATC
- activity [10]: 300 s

B22: AMX(453)_F11 (ssDNA)
DNA: TCCCGAGCGATATTGTCTAGGTTGGGTAGGGTGGTGGCTGAGGATCGATC
- activity [3]: 65.8 s

B23: Minimer 7 (ssDNA)
DNA: GGCCGATCAGGCTAGGTTGGGTAGGGTGGTGGCTGAGGATCGGCC
- activity [9]: 83.3 s

B24: ARC2169.7 (ssDNA)
DNA: ACTGCATAGGTTGGGTAGGGTGGTGGCAGT
- activity [1]: 300 s

B25: AMX(453)_F6 (ssDNA)
DNA: TCCTGATCGGATGTGGTGGGTTATTGGTTTGGGTGGCTGAGGATCGATC
- activity [10]: 300 s

B26: ARC2949 (ssDNA)
DNA: CGCTAGGTTGGGTAGGGTGGTGCG
modifications: 2'-OMe at positions 1, 2, 23, 24
- activity [11]: 403 s

B27: ARC2169.2 (ssDNA)
DNA: ACTGCCTAGGGTGGGTAGGGTGGTGGCAGT
- activity [1]: 300 s

B28: AMX(398)_C5 (ssDNA)
DNA: TCCCCGATGTGTCAGCCTAGGGTGGTTAGGGTGGTGGCTGAGGATCGATC
- binding signal [6]: 19.2 % bound
- activity [7]: 64.7 s
- Kd [8]: 2.2 nM

B29: AMX(395)_H9 (ssDNA)
DNA: TCCCGGTAGCGATCCAGAGAGGGATGGGGTGGGTGGCTGAGGATCGATC
- binding signal [4]: 9.61 % bound

B30: AMX(453)_B10 (ssDNA)
DNA: TCCCATCGATCTGGGGTAGTTTTATTGGGTCGGGTGGCTGAGGATCGATC
- activity [3]: 24.8 s

B31: AMX(454)_H3 (ssDNA)
DNA: TCCCATCGATCTGGGGTAGTTTTATTGGGTTGGGTGGCTGAGGATCGATC
- activity [3]: 35.4 s

B32: AMX(454)_B9 (ssDNA)
DNA: CCCGACTGATTCTTACCTTAGGGATGGTGTGGGTGGCTGAGGATCGATC
- activity [3]: 32 s

B33: ARC2195 (ssDNA)
DNA: TTTCTGCCTAGGTTGGGTAGGGTGGTGGCAGTTT
- activity [2]: 438 s

B34: ARC2169.6 (ssDNA)
DNA: ACTGCATAGGTTGGGTAGGGTGGTTGCAGT
- activity [1]: 300 s

B35: AMX(454)_B12 (ssDNA)
DNA: TCCCTGGTTTCGATCTGTTTTGGTTGGTCTGGGTGGCTGAGGATCGATC
- activity [3]: 21.9 s

B36: ARC2192 (ssDNA)
DNA: CTGCCTAGGTTGGGTAGGGTGGTGGCAGTTTTTT
- activity [2]: 423 s

B37: Minimer 11 (ssDNA)
DNA: CCGGCTAGGTTGGGTAGGGTGGTGGCTGG
- activity [9]: 27.9 s

B38: AMX(399)_F12 (ssDNA)
DNA: TCCCGATTGGAAAGCCTAGGATGGGTAGGGTGGTGGCTGAGGATCGATC
- binding signal [6]: 48.2 % bound
- activity [7]: 74.9 s
- Kd [8]: 0.66 nM

B39: AMX(398)_H5 (ssDNA)
DNA: TCCCATCTTCTGTAGCCTAGGTTGGGTAGGGTGGTGGCTGAGGATCGATC
- activity [7]: 71 s

B40: AMX(453)_B6 (ssDNA)
DNA: TCCCATCGAGCTCAGTCTAGGATGGGTAGGGTGGTGGCTGAGGATCGATC
- activity [10]: 300 s

B41: ARC2329 (ssDNA)
DNA: CGCCTAGGTTGGGTAGGGTGGTGGCG
modifications: 5'-PEG 10 kDa via hexylamine
- activity [5]: 664 s

B42: ARC2196 (ssDNA)
DNA: TTTTTTCTGCCTAGGTTGGGTAGGGTGGTGGCAGTTTTTT
- activity [2]: 441 s

B43: ARC2191 (ssDNA)
DNA: CTGCCTAGGTTGGGTAGGGTGGTGGCAGTTT
- activity [2]: 453 s

B44: ARC2190 (ssDNA)
DNA: TTTTTTCCTCAGGGATGGTGTGGGTGGCTGAGGTTTTTT
- activity [2]: 389 s
